The source of these data is patent US20230414780A1 (VECT HORUS, published 2023).

Where a chain is given by its changes, count along the chain named.

Test [1] concerns the target T1, mouse transferrin receptor (mTfR) fused to EGFP, on CHO cells (mouse, UniProt Q62351 1-763).
T1 construct: whole, on cells; also called mouse TfR; CHO-mTfR-EGFP; not shown: EGFP
The test can be described thus: apparent Kd, flow cytometry, CHO cells. Here is the method: All experiments were performed in 96 well plates using 2×10⁵ cells/well, at 4° C. with shaking. CHO cell lines stably expressing the hTfR or the mTfR fused to EGFP or CHO WT cells were saturated with PBS/BSA 2% solution during 30 min to avoid non-specific binding, followed by incubation with purified VHHs at concentrations ranging from 50 μM to 5 μM for 1 hr. After one wash in PBS/BSA 2%, cells were incubated for 1 hr with an anti-6His tag antibody (mouse), washed twice with PBS/BSA 2%, and incubated for 45 min with an Alexa647-conjugated anti-mouse secondary antibody. After two last washes in PBS/BSA 2%, cells were fixed by incubation for 15 min with PBS/PFA 2%, washed once with PBS and finally resuspended in PBS and stored at 4° C. Fluorescence levels were assessed using an Attune NxT Flow Cytometer (Thermo Fisher Scientific). […] No labeling of the CHO WT control cells was detected with all the tested VHHs (not shown). The VHH K_{d app} were calculated using GraphPad Prism software (FIG. 11-B; 12-B).

The target of test [2] is T1, mouse transferrin receptor (mTfR) fused …. The test can be described thus: flow cytometry on CHO-mTfR-EGFP cells, 1 hr at 4 C, Alexa647 anti-mouse; apparent Kd, mean ± SEM of 3 experiments. The protocol:
(§1) FIGS. 13A-13B: Apparent Kd determination of 13C3-HC-VHH fusions on hTfR- and mTfR-expressing CHO cell lines. (A) CHO-hTfR-EGFP and CHO-mTfR-EGFP cells were incubated 1 hr at 4° C. with various concentrations of 13C3 fusions and detected with an Alexa647-conjugated anti-mouse antibody (1/400). Measurements were performed using flow cytometry. The ratio of fluorescence intensity for each point was normalized with the corresponding EGFP signal (receptor expression) and gave rise to the arbitrary unit. Data are presented as mean±SEM of 3 independent experiments. (B) Characteristics of 13C3 fusions: Molecular Weight (Da); Apparent Kd on human TfR (nM); Apparent Kd on mouse TfR (nM). Data are presented as mean±SEM of 3 independent experiments. NB: no binding, LB: low binding.
All experiments were performed in 96 well plates using 2×10⁵ cells/well, at 4° C. with shaking. CHO cell lines stably expressing the hTfR or the mTfR fused to EGFP or CHO WT cells were saturated with PBS/BSA 2% solution during 30 min to avoid non-specific binding, followed by incubation with purified VHHs at concentrations ranging from 50 μM to 5 μM for 1 hr. After one wash in PBS/BSA 2%, cells were incubated for 1 hr with an anti-6His tag antibody (mouse), washed twice with PBS/BSA 2%, and incubated for 45 min with an Alexa647-conjugated anti-mouse secondary antibody. After two last washes in PBS/BSA 2%, cells were fixed by incubation for 15 min with PBS/PFA 2%, washed once with PBS and finally resuspended in PBS and stored at 4° C. Fluorescence levels were assessed using an Attune NxT Flow Cytometer (Thermo Fisher Scientific).
On the technique in general: Flow cytometry measures light scatter and fluorescence of single cells or particles in a stream.

The target of test [3] is T2, human transferrin receptor (hTfR) fused to EGFP, on CHO cells (human, UniProt P02786 1-760).
T2 construct: whole, on cells; also called human TfR; CHO-hTfR-EGFP; not shown: EGFP from pEGFP-C1 vector, fused to the N-terminal (intracellular) end of hTfR
The test can be described thus: flow cytometry on CHO-hTfR-EGFP cells, 1 hr at 4 C, Alexa647 anti-hFc; apparent Kd, mean ± SEM of 3 experiments. Here is the method:
as §1, with “8A-8B:” for “13A-13B:”, “VHH-Fcs and Fc-VHHs” for “13C3-HC-VHH fusions”, “VHH-Fcs or Fc-VHHs,” for “13C3 fusions and”, “anti-hFc” for “anti-mouse”, “selected VHH-Fcs and Fc-VHHs:” for “13C3 fusions:”, “experiments.” for “experiments. NB: no binding, LB: low binding.”
(§2) The binding properties of VHH-Fc and Fc-VHH fusion proteins with an affinity for the TfR were tested in flow cytometry experiments, and apparent affinity (K_{d app}) were determined. All experiments were performed in 96 well plates using 2-3×10⁵ cells/well, at 4° C. with shaking. […] After washes, cells were incubated for 1 hr with an Alexa647-conjugated anti-hFc antibody (Jackson ImmunoResearch). After 3 last washes and cells resuspension in PBS, fluorescence was immediately measured using a MACSQuant flow cytometer (Miltenyi), and results were analyzed with the MACSQuant software. […] The VHH-Fc and Fc-VHH K_{d app} were calculated using GraphPad Prism software (FIG. 8-B).

For test [4], the target named is T1, mouse transferrin receptor (mTfR) fused …. The test can be described thus: flow cytometry on CHO-mTfR-EGFP cells, 1 hr at 4 C, Alexa647 anti-hFc; apparent Kd, mean ± SEM of 3 experiments. The protocol:
as §1, with “8A-8B:” for “13A-13B:”, “VHH-Fcs and Fc-VHHs” for “13C3-HC-VHH fusions”, “VHH-Fcs or Fc-VHHs,” for “13C3 fusions and”, “anti-hFc” for “anti-mouse”, “selected VHH-Fcs and Fc-VHHs:” for “13C3 fusions:”, “experiments.” for “experiments. NB: no binding, LB: low binding.”
as §2

The target in test [5] is T2, human transferrin receptor (hTfR) fused …. The test can be described thus: flow cytometry on CHO-hTfR-EGFP cells, 1 hr at 4 C, anti-6His + Alexa647 anti-mouse; ratio to background fluorescence. Here is the method: FIGS. 15A-15H: In vitro gene silencing activity of VHH-siGFPst1 bioconjugates. […] CHO-hTfR-EGFP cells were incubated 1 hr at 4° C. with various concentrations of the indicated compounds. Detection of VHHs was performed using a primary mouse anti-6His (1/1000) and an Alexa647-conjugated anti-mouse secondary antibody (1/400). Measurements of cell-surface signal associated to VHH were performed using flow cytometry. The results are expressed as the ratio of Alexa647-associated fluorescence intensity of test compounds to that of background fluorescence. […] The total fluorescence associated to the EGFP protein was then quantified using flow cytometry and rationalized to that of untreated (control) cells (set at 100%) *** p≤0.001. […] The total fluorescence associated with the EGFP protein was then quantified using flow cytometry and rationalized to that of untreated (control) cells (set at 100%). […] CHO-hTfR-EGFP cells were incubated with the indicated compounds at 1 μM during 120 hrs at 37° C. Data were processed and analyzed as described in (B). *** p≤0.001 vs. untreated cells. […] The total fluorescence associated with the EGFP protein was then quantified using flow cytometry and rationalized to that of untreated (control) cells (set at 100%).

Test [6] has the same target. The test can be described thus: cell-based or functional assay.

T2 sequence (P02786 whole entry, the tested form may be a part): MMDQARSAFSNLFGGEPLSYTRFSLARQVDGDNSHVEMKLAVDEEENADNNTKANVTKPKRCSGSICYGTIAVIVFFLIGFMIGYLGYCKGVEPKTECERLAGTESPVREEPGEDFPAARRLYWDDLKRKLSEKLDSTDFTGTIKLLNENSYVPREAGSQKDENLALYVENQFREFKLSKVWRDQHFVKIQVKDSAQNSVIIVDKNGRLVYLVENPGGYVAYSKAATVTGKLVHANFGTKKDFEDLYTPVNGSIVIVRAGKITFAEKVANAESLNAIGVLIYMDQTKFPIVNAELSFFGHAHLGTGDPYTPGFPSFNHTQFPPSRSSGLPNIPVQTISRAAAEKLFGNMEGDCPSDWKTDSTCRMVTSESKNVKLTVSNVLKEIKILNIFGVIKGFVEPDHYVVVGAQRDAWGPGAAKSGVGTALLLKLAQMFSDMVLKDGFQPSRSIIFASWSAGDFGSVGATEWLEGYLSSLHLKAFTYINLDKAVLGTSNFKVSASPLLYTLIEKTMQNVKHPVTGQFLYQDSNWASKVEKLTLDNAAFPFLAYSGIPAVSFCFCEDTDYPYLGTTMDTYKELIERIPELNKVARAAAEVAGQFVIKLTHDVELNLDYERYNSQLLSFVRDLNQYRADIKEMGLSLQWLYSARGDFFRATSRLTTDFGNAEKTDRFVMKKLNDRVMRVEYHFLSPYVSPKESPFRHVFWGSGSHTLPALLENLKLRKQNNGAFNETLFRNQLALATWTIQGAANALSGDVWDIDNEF
T1 sequence (Q62351 whole entry, the tested form may be a part): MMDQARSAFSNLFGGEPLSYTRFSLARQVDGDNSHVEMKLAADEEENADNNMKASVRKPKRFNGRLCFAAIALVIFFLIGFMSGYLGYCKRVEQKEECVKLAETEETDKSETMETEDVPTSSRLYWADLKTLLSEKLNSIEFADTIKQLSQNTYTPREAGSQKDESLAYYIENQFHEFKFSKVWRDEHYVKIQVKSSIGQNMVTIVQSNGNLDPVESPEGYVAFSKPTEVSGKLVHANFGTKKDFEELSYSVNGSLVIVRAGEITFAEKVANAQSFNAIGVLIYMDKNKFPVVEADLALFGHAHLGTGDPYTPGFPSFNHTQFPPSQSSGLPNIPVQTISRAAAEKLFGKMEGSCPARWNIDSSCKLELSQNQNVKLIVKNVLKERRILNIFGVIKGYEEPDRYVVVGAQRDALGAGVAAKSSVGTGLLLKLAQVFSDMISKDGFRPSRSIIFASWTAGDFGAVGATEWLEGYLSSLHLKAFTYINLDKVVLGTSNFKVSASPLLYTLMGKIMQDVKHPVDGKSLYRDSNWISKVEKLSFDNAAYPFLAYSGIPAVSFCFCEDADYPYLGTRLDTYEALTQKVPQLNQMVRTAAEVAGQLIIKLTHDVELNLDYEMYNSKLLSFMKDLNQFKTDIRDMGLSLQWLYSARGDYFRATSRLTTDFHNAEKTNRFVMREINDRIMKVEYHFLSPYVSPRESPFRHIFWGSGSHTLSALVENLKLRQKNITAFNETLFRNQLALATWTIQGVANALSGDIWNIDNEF

B1: 13C3-LC-VHH A (antibody)
light: DVVMTQTPLSLPVSLGDQASISCRSGQSLVHSNGNTYLHWYLQKPGQSPKLLIYTVSNRFSGVPDRFSGSGSGSDFTLKISRVEAEDLGVYFCSQNTFVPWTFGGGTKLEIKRADAAPTVSIFPPSSEQLTSGGASVVCFLNNFYPKDINVKWKIDGSERQNGVLNSWTDQDSKDSTYSMSSTLTLTKDEYERHNSYTCEATHKTSTSPIVKSFNRNECSGSGGGGGMAEVQLVESGGGVVQPGGSLKLSCVASGTDFSINFIRWYRQAPGKQREFVAGFTATGNTNYADSMKGRFTISRDNTKNAVYLQIDSLKPEDTAVYYCYMLDKWGQGTQVTVSSAAA
heavy: QVQLQQSGPELVRPGVSVKISCKGSGYTFTDYAMHWVKQSHAKSLEWIGVISTKYGKTNYNQKFKGKATMTVDKSSSTAYMELARLTSEDSAIYYCARGDDGYSWGQGTSVTVSSAKTTPPSVYPLAPGSAAQTNSMVTLGCLVKGYFPEPVTVTWNSGSLSSGVHTFPAVLQSDLYTLSSSVTVPSSTWPSETVTCNVAHPASSTKVDKKIVPRDCGCKPCICTVPEVSSVFIFPPKPKDVLTITLTPKVTCVVVDISKDDPEVQFSWFVDDVEVHTAQTQPREEQFNSTFRSVSELPIMHQDWLNGKEFKCRVNSAAFPAPIEKTISKTKGRPKAPQVYTIPPPKEQMAKDKVSLTCMITDFFPEDITVEWQWNGQPAENYKNTQPIMDTDGSYFVYSKLNVQKSNWEAGNTFTCSVLHEGLHNHHTEKSLSHSPG
On to B1, for which the Kd in test [1] is 106 nM.

B2: 13C3-HC-VHH A (antibody, mouse IgG1)
heavy: QVQLQQSGPELVRPGVSVKISCKGSGYTFTDYAMHWVKQSHAKSLEWIGVISTKYGKTNYNQKFKGKATMTVDKSSSTAYMELARLTSEDSAIYYCARGDDGYSWGQGTSVTVSSAKTTPPSVYPLAPGSAAQTNSMVTLGCLVKGYFPEPVTVTWNSGSLSSGVHTFPAVLQSDLYTLSSSVTVPSSTWPSETVTCNVAHPASSTKVDKKIVPRDCGCKPCICTVPEVSSVFIFPPKPKDVLTITLTPKVTCVVVDISKDDPEVQFSWFVDDVEVHTAQTQPREEQFNSTFRSVSELPIMHQDWLNGKEFKCRVNSAAFPAPIEKTISKTKGRPKAPQVYTIPPPKEQMAKDKVSLTCMITDFFPEDITVEWQWNGQPAENYKNTQPIMDTDGSYFVYSKLNVQKSNWEAGNTFTCSVLHEGLHNHHTEKSLSHSPGGGGGMAEVQLVESGGGVVQPGGSLKLSCVASGTDFSINFIRWYRQAPGKQREFVAGFTATGNTNYADSMKGRFTISRDNTKNAVYLQIDSLKPEDTAVYYCYMLDKWGQGTQVTVSSAAA
light: DVVMTQTPLSLPVSLGDQASISCRSGQSLVHSNGNTYLHWYLQKPGQSPKLLIYTVSNRFSGVPDRFSGSGSGSDFTLKISRVEAEDLGVYFCSQNTFVPWTFGGGTKLEIKRADAAPTVSIFPPSSEQLTSGGASVVCFLNNFYPKDINVKWKIDGSERQNGVLNSWTDQDSKDSTYSMSSTLTLTKDEYERHNSYTCEATHKTSTSPIVKSFNRNEC
notes: mouse IgG1 13C3 (anti beta-amyloid protofibril) with VHH A at the C-ter of each heavy chain
As to B2, the Kd in test [2] is 11.3 nM.

B3: 13C3-HC-VHH A6 (antibody)
heavy: B2 heavy with M541A
light: B2 light
As for B3, the Kd in test [2] was determined as 23 nM.

B4: 13C3-HC-VHH A8 (antibody)
heavy: B2 heavy with D543A
light: B2 light
Take B4: in test [1], the Kd turned out to be 315 nM.

B5: Fc-VHH B (Fc fusion)
VHH: EVQLVESGGGVVQPGGSLRLSCAASGEIFSINFMRWYRQAPGKQREWVAGFTRDGSTNYPDSAKGRFTISRDNAKNTVYLQIDSLKPEDTAVYYCYMLDTWGQGTQVTVSS
modifications: Genetic fusion with the VHH at the C-terminus of a human IgG1 Fc. It forms a homodimer, so it is bivalent.
notes: not shown: Human IgG1 Fc of the pINFUSE-IgG1-Fc2 vector (InvivoGen), N-terminal to the VHH, and any junction or linker residues
On to B5, for which the Kd came to 1.5 nM in test [3] and 51 nM in test [4].

B6: VHH B-Fc (Fc fusion)
chain: B5 VHH
notes: not shown: human IgG1 Fc fragment of the pINFUSE-IgG1-Fc2 vector (InvivoGen)
For the molecule B6, the Kd in test [3] is 1.2 nM; in test [4] it was 0.61 nM.

B7: VHH A-siGFPst1 bioconjugate (VHH)
VHH: EVQLVESGGGVVQPGGSLKLSCVASGTDFSINFIRWYRQAPGKQREFVAGFTATGNTNYADSMKGRFTISRDNTKNAVYLQIDSLKPEDTAVYYCYMLDKWGQGTQVTVSS
modifications: siGFPst1 siRNA linked by azide/DBCO click chemistry to the Gln of the C-terminal Q-tag
notes: not shown: C-terminal tag with His tag and Q-tag (Q-tagged VHH)
One may read the EC50 (read off the curve) as the midpoint of the concentration-response curve. Consider B7, for which, in test [5], the 50% effective concentration (EC50 (read off the curve)) is around 3 nM. Moreover, in test [6], the “IC50 of reduction of GFP protein levels, 6-hour pulse and chase to 120 hrs” value amounted to 1.24 nM; the “IC50 of reduction of GFP protein levels, free uptake 120 hrs” value was 2.73 nM.

B8: Fc-VHH A (Fc fusion)
VHH: B7 VHH
modifications: Genetic fusion with the VHH at the C-terminus of a human IgG1 Fc. It forms a homodimer, so it is bivalent.
notes: as for B5
Turning to B8, the values for the Kd in test [3] and in test [4] were 1.3 nM and 22 nM, respectively.
